# Measurements taken from paper PMC3527619.
# B1: HA (hemoagglutinin)-tagged Centaurin-α2 (pCGN-Centaurin-α2) (natural protein)
# chain: MGDRERNKKRLLELLRAPDTGNAHCADCGAADPDWASYKLGIFICLNCCGVHRNFPDISRVKSVRLDFWDDSIVEFMIHNGNLRVKAKFEARVPAFYYIPQANDCLVLKEQWIRAKYERREFMADGETISLPGNREGFLWKRGRDNSQFLRRKFVLLAREGLLKYFTKEQGKSPKAVISIKDLNATFQTEKIGHPHGLQITYRRDGHTRNLFVYHESGKEIVDWFNALRAARLQYLKMAFPELPESELVPFLTRNYLKQGFMEKTGPKQKEPFKKRWFALDCHERRLLYYKNPLDAFEQGQVFLGNKEQGYEAYEDLPKGIRGNRWKAGLTIVTPERRFVLTCPSEKEQQEWLESLRGVLSSPLTPLNRLTASTESGRSSR
# B2: His-tagged Centaurin-α2 (recombinant, pET-Centα2) (natural protein)
# chain: B1 chain
# How the values were obtained:
# [1] = molecular target: Microtubules (polymerized Tubulin, Triton-insoluble fraction) of HeLa cells (human (endogenous in HeLa)) (UniProt P68363); experiment: Triton-X-100 extraction of soluble and insoluble (cytoskeletal) fractions, Western blot and densitometry; HeLa cells transfected with pCGN-Centaurin-α2; 0.1% Triton-X-100 in Pipes pH 6.94, EGTA, MgCl2, 2 M glycerol, 10 min at room temperature; control cells or cells treated with nocodazole (3 µg/ml, 3 h) or cold (4°C, 3 h)
# [2] = molecular target: Tubulin purified from bovine brain, polymerised to microtubules in vitro (bovine) (UniProt Q6B856); experiment: co-sedimentation; 40 µM tubulin plus 5 µM Centaurin-α2, 90 minutes of polymerization at 37°C in 80 mM K-PIPES pH 6.9, 2 mM EGTA, 1 mM MgCl2, 10% glycerol; 16500 g for 30 minutes; supernatant and pellet on SDS-PAGE, Coomassie, densitometry
# [3] = molecular target: Tubulin purified from bovine brain, polymerised to microtubules in vitro (bovine) (UniProt Q6B856); experiment: co-sedimentation; as a4 (40 µM tubulin plus 5 µM Centaurin-α2, 90 minutes at 37°C), then 30 minutes of incubation on ice before centrifugation (37°C→4°C)
# Sequence of UniProt P68363 (P68363 whole entry, chain 1 of 2): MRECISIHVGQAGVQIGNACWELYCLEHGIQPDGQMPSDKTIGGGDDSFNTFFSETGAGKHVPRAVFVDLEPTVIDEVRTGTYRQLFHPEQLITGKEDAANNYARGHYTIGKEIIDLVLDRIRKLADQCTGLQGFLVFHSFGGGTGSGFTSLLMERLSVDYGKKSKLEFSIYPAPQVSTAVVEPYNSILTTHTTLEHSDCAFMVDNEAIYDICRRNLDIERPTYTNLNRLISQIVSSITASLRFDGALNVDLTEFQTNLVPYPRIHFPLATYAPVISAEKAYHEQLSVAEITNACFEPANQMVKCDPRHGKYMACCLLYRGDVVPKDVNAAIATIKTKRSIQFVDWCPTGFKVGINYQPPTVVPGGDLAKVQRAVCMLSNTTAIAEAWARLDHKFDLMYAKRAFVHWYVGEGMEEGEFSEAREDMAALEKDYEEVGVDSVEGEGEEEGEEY
# Sequence of UniProt P68363 (P07437 whole entry, chain 2 of 2, further chain): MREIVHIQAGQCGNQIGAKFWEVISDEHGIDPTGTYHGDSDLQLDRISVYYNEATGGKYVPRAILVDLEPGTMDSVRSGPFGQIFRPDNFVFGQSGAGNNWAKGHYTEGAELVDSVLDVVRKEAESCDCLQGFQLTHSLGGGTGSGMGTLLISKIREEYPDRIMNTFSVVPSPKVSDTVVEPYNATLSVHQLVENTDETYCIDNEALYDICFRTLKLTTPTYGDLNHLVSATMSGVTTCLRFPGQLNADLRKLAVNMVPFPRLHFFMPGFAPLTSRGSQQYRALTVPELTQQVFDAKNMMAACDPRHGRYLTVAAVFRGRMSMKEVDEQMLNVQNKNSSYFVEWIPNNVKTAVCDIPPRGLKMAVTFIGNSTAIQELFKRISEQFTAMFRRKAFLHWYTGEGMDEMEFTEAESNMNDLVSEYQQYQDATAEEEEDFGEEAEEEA
binder,measurement,setting,value
B1,percent of Centaurin-α2 in the Triton-insoluble (MT) fraction,[1],80%
B2,percent of Centaurin-α2 in the MT (pellet) fraction,[2],80%
same,percent of Centaurin-α2 in the MT (pellet) fraction,[3],50%
